Measured values taken from patent US20200283508A1 (TEXAS A AND M UNIVERSITY SYSTEM, published 2020).
Numbering of substitutions follows the chain as printed.

B1: FBE5-B9 (scFv, V domains shown)
VH: EVQLVESRGGVVQPGRSLRLSCAASGFTFSSYGMHWVRQAPGRGLEWVAVISYDGSNKYYADSVKGRFTISRDNSKNTLYLQMNGLRSDDTAVYYCARGGDDYGDYFDYWGQGTLVTVSS
VL: QSVLTQPPSVSAAPGQKVTISCSGSSSNIGNNYVSWYQQLPGTAPKLLIYDNNKRPSGIPDRFSGSKSGTSATLGITGLQTGDEADYYCGTWDSSLSAAVFGGGTKLTVL
B2: FBE5-C8 (scFv, V domains shown)
VH: QMQLVQSGGGVVQPGRSLRLSCAASGFIFSNYGMHWVRQAPGKGLEWVAVISYDGSNKYYADSVKGRFTISRDNSKNTLYLQMDSLRAEDTAVYYCAREGVGGDYGDLPTGPYYYYGMDVWGQGTTVTVSS
VL: B1 VL with Y33S, G90E, A99V
B3: FBE5-F9 (scFv, V domains shown)
VH: QMQLVQSGGGVVQPGRSLRLSCAASGFTFSSYGMHWVRQAPGKGLEWVAVISYDGSNKYYADSVKGRFTISRDNSKNTLYLQMNSLRAEDTAVYYCAKEGDGDYGGVLDYWGQGTLVTVSS
VL: B1 VL with G30E, N31K, A99V
B4: FBE5-A5 (scFv, V domains shown)
VH: EVQLVQSGGGVVQPGRSLRLSCAASGFTFSSYGMHWVRQAPGKGLEWVAVISYDGSNKYYADSVKGRFTISRDNSKNTLYLQMNSLRAEDTAVYYCAKAGPDSYGYGMDVWGQGTTVTVSS
VL: not shown
B5: FBE5-A6 (scFv, V domains shown)
VH: B3 VH with M2V, E99A, G102D, G106H, V107Y, L108F
VL: not shown
B6: FBE5-C1 (scFv, V domains shown)
VH: EVQLVETRGGVVQPGRSLRLSCAASGFTFSSYGMHWVRQAPGKGLEWVAVISYDGSNKYYADSVKGRFTISRDNSKNTLYLQMNSLRAEDTAVYYCAREGTYYYDSSGYYEGGFDYWGQGTLVTVSS
VL: QSVLTQPPSASGTPGQRVTISCSGSSSNIGSGPVNWYQQLPGTAPKLLIYSDTRRPSGIPDRLSGSKSGTSASLGISGLQSEDEADYYCAAWDDSLNGYAFGSGTKVTVL
B7: FBE5-A12 (scFv, V domains shown)
VH: QVQLVESGGGVVQPGRSLRLSCAASGFTFSSYGMHWVRQAPGKGLEWVAVISYDGSNKYYADSVKGRFTISRDNSKNTLYLQMNSLRGEDTAVYYCAREGGWEPNGLDYWGQGTLVTVSS
VL: QAVLTQPPSASGTPGQRVTISCSGSDFNVGTNYVNWYQQLPGSAPKLLIYRNNQRPSGVPDRFSGSKSGTSATLGITGLQTGDEADYYCGTWDSSLSAEVFGGGTKLTVL

target: Coa-F (Coa 311-505) (Staphylococcus aureus strain Newman, UniProt P08515 1-218 = GST); test: apparent Kd from half-maximal binding in ELISA (GraphPad Prism)

Row | Binder | Kd [nM]
1 | B1 | 1.12
2 | B2 | 7
3 | B3 | 1.63
4 | B4 | 1.47
5 | B5 | 1.15
6 | B6 | 4.59
7 | B7 | 0.647

Target: T1, Coa-R0474-505 (recombinant protein) (Staphylococcus aureus strain Newman)
T1 chain: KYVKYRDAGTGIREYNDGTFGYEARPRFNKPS
Test: as above

Row | Binder | Kd [nM]
8 | B1 | 2.19
9 | B3 | 3.16
10 | B4 | 1.86
11 | B5 | 1.9
12 | B6 | 24.3
13 | B7 | 2.44

target: T2, Coa-C (Coa 311-636) (Staphylococcus aureus strain Newman, UniProt P08515 1-218 = GST); test: as above
T2 construct: also called rCoa-C; Coa-C311-636

Row | Binder | Kd [nM]
14 | B1 | 1.74
15 | B2 | 13.5
16 | B3 | 2.85
17 | B4 | 5.34
18 | B5 | 1.24
19 | B6 | 1.13
20 | B7 | 0.555

target: T3, Efb-A30-67 (Staphylococcus aureus strain Newman, UniProt P08515 1-218 = GST; A6QG59 30-67); test: not given

Row | Binder | EC50 (read off the curve) [µg/mL]
21 | B4 | ~0.4

Target: T1, Coa-R0474-505 (recombinant protein)
Test: not given

Row | Binder | EC50 (read off the curve) [µg/mL]
22 | B1 | ~0.2
23 | B4 | ~0.2
24 | B5 | ~0.2

target: T2, Coa-C (Coa 311-636); test: not given

Row | Binder | EC50 (read off the curve) [µg/mL]
25 | B7 | ~0.06

target: Coa-R (Coa 506-636) (Staphylococcus aureus strain Newman); test: ELISA, antigen coated 200 ng/well, scFv-Fc at 0.5 µg/ml

Row | Binder | binding result
26 | B1 | no binding (tested: 0.5 µg/ml)
27 | B2 | no binding (tested: 0.5 µg/ml)
28 | B3 | no binding (tested: 0.5 µg/ml)
29 | B4 | no binding (tested: 0.5 µg/ml)
30 | B5 | no binding (tested: 0.5 µg/ml)
31 | B6 | no binding (tested: 0.5 µg/ml)
32 | B7 | no binding (tested: 0.5 µg/ml)

target: recombinant Efb-O (Efb 68-98) (Staphylococcus aureus strain Newman, UniProt P08515 1-218 = GST); test: apparent Kd from half-maximal binding in ELISA (GraphPad Prism)

Row | Binder | Kd [nM]
33 | B1 | 8.27
34 | B3 | 7.97
35 | B4 | 4.27
36 | B5 | 13

target: T4, Efb-N30-105 (Staphylococcus aureus strain Newman, UniProt A6QG59 30-105); test: as above
T4 sequence: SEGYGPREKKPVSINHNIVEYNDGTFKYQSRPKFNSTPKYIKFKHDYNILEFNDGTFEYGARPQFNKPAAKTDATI

Row | Binder | Kd [nM]
37 | B1 | 3.45
38 | B3 | 6.01
39 | B4 | 3.24
40 | B5 | 3.54

target: T3, Efb-A30-67; test: as above

Row | Binder | Kd [nM]
41 | B1 | 25.9
42 | B3 | 21.5
43 | B4 | 4.38
44 | B5 | 8.54
45 | B6 | 40.9
